One test concerns the target T1, human CXCR5 (human, UniProt P32302 1-372).
T1 construct: whole, on cells; CHO cells
T1 sequence (looked up): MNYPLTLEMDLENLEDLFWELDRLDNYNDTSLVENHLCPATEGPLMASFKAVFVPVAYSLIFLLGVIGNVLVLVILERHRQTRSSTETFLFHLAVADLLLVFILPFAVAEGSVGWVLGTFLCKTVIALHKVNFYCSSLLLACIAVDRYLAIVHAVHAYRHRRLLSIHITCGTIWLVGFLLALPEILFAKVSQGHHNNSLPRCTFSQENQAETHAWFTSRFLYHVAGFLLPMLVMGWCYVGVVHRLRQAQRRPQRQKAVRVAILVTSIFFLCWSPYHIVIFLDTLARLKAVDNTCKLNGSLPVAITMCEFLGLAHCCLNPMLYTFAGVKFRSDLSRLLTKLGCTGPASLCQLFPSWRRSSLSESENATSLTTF
Description: FACS, CHO-human CXCR5 cells.

The target in test [1] is T2, human chemokine receptor CCR7 (human, UniProt P32248 25-378).
T2 construct: On CHO, BHK, R1610 and Chem-1 transfectants and, natively, on human PBMC and the leukemia lines JVM-13 and CLL-AAT; also called human CCR7; hCCR7
T2 sequence: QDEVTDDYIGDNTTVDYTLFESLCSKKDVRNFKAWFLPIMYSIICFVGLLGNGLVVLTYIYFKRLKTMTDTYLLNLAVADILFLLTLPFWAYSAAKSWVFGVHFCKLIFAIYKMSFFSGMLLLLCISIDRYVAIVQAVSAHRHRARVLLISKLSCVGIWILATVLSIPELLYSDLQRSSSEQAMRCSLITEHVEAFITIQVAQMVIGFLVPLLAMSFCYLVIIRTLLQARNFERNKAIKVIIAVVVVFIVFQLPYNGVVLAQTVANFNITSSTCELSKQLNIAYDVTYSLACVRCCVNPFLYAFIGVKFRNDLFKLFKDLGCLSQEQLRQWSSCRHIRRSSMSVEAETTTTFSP
Description: flow cytometry titration, BHK cells expressing human CCR7. The procedure: (§1) The affinity of IgG1 antibodies to human CCR7 was evaluated by measuring mean fluorescence value (MFI) of cells expressing CCR7 in the presence of varying concentration of antibody in question, upon staining of bound to the cells antibodies with a commercial anti-human antibody-PE conjugate. The data of such experiments are depicted in FIGS. 9, 10, and 11. In these experiments binding of some antibodies to parental cells or cells expressing mouse CCR7 was also quantitatively characterized by obtaining EC₅₀ value (a concentration of IgG1 at which half-maximum MFI is achieved) for each curve using the SoftMaxPro5 program.
Background: In flow cytometry, cells or beads pass a laser one at a time.

For test [2], the target named is T2, human chemokine receptor CCR7. Description: flow cytometry titration, CHO-human CCR7 cells. The procedure:
as §1

Test [3] shares this target. Description: flow cytometry, human CCR7 cells (summary table).
For test [4], the target named is T3, mouse CCR7 (mouse, UniProt P47774 25-378).
T3 construct: whole, on cells; On CHO-mouse CCR7 cells and on mouse splenocytes; also called mouse CCR7 ortholog
T3 sequence (looked up): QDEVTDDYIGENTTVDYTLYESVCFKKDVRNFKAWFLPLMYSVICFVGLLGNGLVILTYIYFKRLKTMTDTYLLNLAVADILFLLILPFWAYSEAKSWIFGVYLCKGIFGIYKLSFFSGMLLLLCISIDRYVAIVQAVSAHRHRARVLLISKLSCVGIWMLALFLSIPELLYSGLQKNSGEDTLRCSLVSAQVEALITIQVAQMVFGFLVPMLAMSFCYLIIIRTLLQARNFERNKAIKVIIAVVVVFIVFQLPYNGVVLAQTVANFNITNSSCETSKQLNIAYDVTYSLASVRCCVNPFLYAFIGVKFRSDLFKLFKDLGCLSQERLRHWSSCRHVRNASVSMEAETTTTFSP
Description: flow cytometry titration, CHO cells expressing mouse CCR7.

The target in test [5] is T3, mouse CCR7. Description: flow cytometry titration, CHO-mouse CCR7 cells. As for the experimental part: as §1
Test [6] addresses T2, human chemokine receptor CCR7. Description: flow cytometry titration, CCR7-expressing CHO cells; antibody kept 12 h at 40 C.
Test [7] has the same target. Description: flow cytometry titration, cells expressing CCR7; before storage (unit from the axis, nM).
Test [8] shares this target. Description: flow cytometry titration, CCR7-expressing CHO cells; antibody not heat-treated.
For test [9] the target is unchanged. Description: cell-based or functional assay.
Test [10] has the same target. Description: flow cytometry titration, human CCR7-expressing CHO cells.
The target in test [11] is T3, mouse CCR7. Description: flow cytometry, mouse CCR7 cells (summary table).
For test [12], the target named is T2, human chemokine receptor CCR7. Description: flow cytometry titration, cells expressing CCR7; after 4.5 months at 4 C (unit from the axis, nM).

B1: MSM-R710 (fully human anti-human CCR7 antibody, IgG1) (antibody, V domains shown)
VH: EVQLLESGGGLVQPGGSLRLSCAASGFTFSNYTMHWVRQAPGKGLEWVSGIGPRSGRTYYADSVKGRFTISRDNSKNTLYLQMNSLRAEDTAVYYCARSYAYQYRGFDYWGQGTLVTVSS
VL: EIVLTQSPGTLSLSPGERATLSCRASQSVSSSYLAWYQQKPGQAPRLLIYGASSRATGIPDRFSGSGSGTDFTLTISRLEPEDFAVYYCQSSVTFGQGTKVEIKR
notes: IgG1 format
For B1, in the test with human CXCR5, the binding result is reported as “no binding (tested: 200 nM MAB mixed 1:1 with cells)”. Besides, in test [1], the EC50 (as a rule, the concentration that produces a half-maximal response) came out at 3.8 nM.

B2: MSM-R735 (fully human anti-human CCR7 antibody, IgG1) (antibody)
heavy: not shown
light: EIVLTQSPGTLSLSPGERATLSCRASQSVSSSYLAWYQQKPGQAPRLLIYGASSRATGIPDRFSGSGSGTDFTLTISRLEPEDFAVYYCQQGSPVTFGQGTKVEIKRTVAAPSVFIFPPSDEQLKSGTASVVCLLNNFYPREAKVQWKVDNALQSGNSQESVTEQDSKDSTYSLSSTLTLSKADYEKHKVYACEVTHQGLSSPVTKSFNRGEC
notes: IgG1 format; also called R735 Human IgG1
B2: the EC50 in test [2] is 0.7 nM; in test [3], 4 nM; with mouse CCR7 [4] it was 2.4 nM; in the test with mouse CCR7 [5], about 642 nM; in test [6], 3.1 nM; in [7], 2.47 nM. Besides, the EC50 in test [8] turned out to be 3 nM; in [10], 3.7 nM; with mouse CCR7 [11], 1 nM; in test [12] it was 2.06 nM. In addition, the binding result with human CXCR5 is listed as “no binding (tested: 200 nM MAB mixed 1:1 with cells)”. In addition, the “EC50 of killing of JVM-13 cells with Fab-ZAP” value in test [9] was determined as 19 nM. The “IC50 of decrease in cell viability with human Fab-ZAP, JVM-13 cells” value in test [9] was about 1.2 nM. In addition, the “IC50 of inhibition of Ca-flux induced by 15 nM CCL19, Chem-1 CCR7 human cells” value in test [9] came to 67 nM.

The values are drawn from patent US20150344580A1 (MSM PROTEIN TECHNOLOGIES, published 2015).
